Results published in article PMC5261807 (2017).
Blank lines part the entries; values can stand above or below the binder they belong to. Non-standard residues stand in square brackets, D forms with d. Primed or numbered codes have the meaning given here. No end group written: not given here. Me2s″ = symmetric dimethylarginine (Rme2s); Arg(Me2a) = CN(C)C(=N)NCCC[C@H](N)C(=O)O; Lys(Me3) = C[N+](C)(C)CCCC[C@H](N)C(=O)O; Arg(Me2s) = CN=C(NC)NCCC[C@H](N)C(=O)O; pT = C[C@@H](OP(=O)(O)O)[C@H](N)C(=O)O; Lys(Me2) = CN(C)CCCC[C@H](N)C(=O)O; pS = N[C@@H](COP(=O)(O)O)C(=O)O; Lys(Me) = CNCCCC[C@H](N)C(=O)O

Experiments:
[1] = target: T1, Bdf1 bromodomain 1 (GST-tagged, WT) (Saccharomyces cerevisiae (strain ATCC …, UniProt P35817)); test: histone peptide array probed with recombinant GST-bromodomain, signal normalised to myc peptide control
T1 chain: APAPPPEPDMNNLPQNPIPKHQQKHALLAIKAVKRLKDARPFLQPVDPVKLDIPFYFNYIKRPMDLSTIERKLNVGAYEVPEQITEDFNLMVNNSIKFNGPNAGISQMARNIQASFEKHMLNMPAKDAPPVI

[2] = target: T2, Bdf1 bromodomain 2 (GST-tagged, WT) (Saccharomyces cerevisiae (strain ATCC …, UniProt P35817)); test: as above
T2 chain: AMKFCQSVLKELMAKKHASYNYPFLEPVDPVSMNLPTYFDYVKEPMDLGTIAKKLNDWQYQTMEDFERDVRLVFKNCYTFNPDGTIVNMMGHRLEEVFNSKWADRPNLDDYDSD

binding score [1]: 0 | binding score [2]: 0.00305
B3: H3 1-19 (peptide)
chain: ARTK(Me)QTARKSTGGKAPRKQ

binding score [1]: 0 | binding score [2]: 0.00521
B5: H3 1-19 (peptide)
chain: ARTKQTA[Arg(Me2a)]K(Me)[pS]TGGKAPRKQ

binding score [1]: 0 | binding score [2]: 0
B9: H3 1-19 (peptide)
chain: A[Arg(Me2a)]TK(Me)QTARKSTGGKAPRKQ

binding score [1]: 0 | binding score [2]: 0.0105
B10: H3 1-19 (peptide)
chain: AR(Me2s″)TK(Me)QTARK(Me)STGGKAPRKQ

binding score [1]: 0.0949 | binding score [2]: 0.388
B13: H2a 1-19 (peptide)
chain: [pS]GRGK(Ac)QGGK(Ac)ARAK(Ac)AKSRSS

binding score [1]: 0 | binding score [2]: 0.329
B14: H2B 1-19 (peptide)
chain: PDPAK(Ac)SAPAPKK(Ac)GSK(Ac)KAVT

binding score [1]: 0 | binding score [2]: 0
B15: H3 1-19 (peptide)
chain: ARTKQTARKSTGGKAPRKQ
modifications: A Rme2s T Kme2 Q T A Rme2a Kme2 S T G G K A P R K Q

binding score [1]: 0 | binding score [2]: 0
B16: H3 16-35 (peptide)
chain: PRKQLATKAA[Arg(Me2s)]KSAPATGG

binding score [1]: 0.00592 | binding score [2]: 0.00718
B17: H3 1-19 (peptide)
chain: ARTKQTARKSTGGKAPRKQ
modifications: not fully specified

binding score [1]: 0.0126 | binding score [2]: 0.00423
B19: H3 1-19 (peptide)
chain: ARTKQTARKSTGGKAPRKQ
modifications: A Rme2a T Kme2 Q T A Rme2a Kac S T G G K A P R K Q

binding score [1]: 0.0188 | binding score [2]: 0.00482
B20: H3 1-19 (peptide)
chain: A[Arg(Me2a)]TK(Ac)QTA[Arg(Me2s)][Lys(Me2)]STGGKAPRKQ

binding score [1]: 0 | binding score [2]: 0
B23: H3 1-19 (peptide)
chain: ARTKQTA[Arg(Me2a)][Lys(Me)][pS][pT]GGKAPRKQ

binding score [1]: 0.00753 | binding score [2]: 0
B26: H3 16-35 (peptide)
chain: PRKQLATKAA[Arg(Me2s)][Lys(Me3)][pS]APATGG

binding score [1]: 0.0411 | binding score [2]: 0.104
B27: H3 1-19 (peptide)
chain: ARTKQTARKSTGGKAPRKQ
modifications: A R T K Q T A R Kme2 S T G G Kac A P R K Q

binding score [1]: 0.00897 | binding score [2]: 0.00915
B30: H3 1-19 (peptide)
chain: A[Arg(Me2a)]TK(Ac)QTARKSTGGKAPRKQ

binding score [1]: 0 | binding score [2]: 0
B31: H3 16-35 (peptide)
chain: PRKQLATKAA[Arg(Me2a)]KSAPATGG

binding score [1]: 0.00323 | binding score [2]: 0.00423
B32: H3 1-19 (peptide)
chain: ARTKQTARKSTGGKAPRKQ
modifications: A Rme2s T Kme2 Q T A Rme2s Kme1 S T G G K A P R K Q

binding score [1]: 0 | binding score [2]: 0.00305
B37: H3 1-19 (peptide)
chain: ARTKQTARKSTGGKAPRKQ
modifications: A R T K Q T A R Kme3 S T G G K A P R K Q

binding score [1]: 0.00699 | binding score [2]: 0
B39: H2B 1-19 (peptide)
chain: PDPAKSAPAPKKG[pS]KKAVT

binding score [1]: 0 | binding score [2]: 0
B42: H3 1-19 (peptide)
chain: ARTKQTARKSTGGKAPRKQ
modifications: A R T Kme2 Q T A Rme2s Kme1 S T G G K A P R K Q

binding score [1]: 0.00681 | binding score [2]: 0.0404
B44: H4 1-19 (peptide)
chain: SGRGKGGKGLGKGGAKRHR
modifications: S G R G Kac G G K G L G K G G A K R H R

binding score [1]: 0 | binding score [2]: 0.0062
B45: H3 1-19 (peptide)
chain: AR[pT]KQTARKSTGGKAPRKQ

binding score [1]: 0 | binding score [2]: 0
B46: H3 1-19 (peptide)
chain: ARTKQTARKSTGGKAPRKQ
modifications: A Rme2s T Kme3 Q T A R K S T G G K A P R K Q

Second part, the binder before the results:

B1: H3 16-35 (peptide)
chain: PRKQLATKAARKSAPATGG
modifications: histone peptides carry modifications given inline in the sequence and in columns 4-7 (Kac, Kme1/2/3, Rme2a/s, Cit, pS/pT); N-terminus free or acetylated
binding score [1]: 0 | binding score [2]: 0

B2: H3 1-19 (peptide)
chain: ARTKQTARKSTGGKAPRKQ
modifications: A R T Kme3 Q T A Rme2s Kme3 S T G G K A P R K Q
binding score [1]: 0 | binding score [2]: 0

B4: H3 1-19 (peptide)
chain: ARTKQTARKSTGGKAPRKQ
modifications: A R T K Q T A R Kme1 S T G G Kac A P R K Q
binding score [1]: 0.0251 | binding score [2]: 0.0902

B6: H4 1-19 (peptide)
chain: SGRGKGGKGLGKGGAKRHR
modifications: S G R G Kac G G Kac G L G Kac G G A K R H R
binding score [1]: 0.307 | binding score [2]: 0.496

B7: H3 1-19 (peptide)
chain: ARTKQTARKSTGGKAPRKQ
modifications: A Rme2s T Kac Q T A Rme2s Kme2 S T G G K A P R K Q
binding score [1]: 0 | binding score [2]: 0

B8: H2a 1-19 (peptide)
chain: [pS]GRGK(Ac)QGGK(Ac)ARAKAKSRSS
binding score [1]: 0.00663 | binding score [2]: 0.162

B11: H3 1-19 (peptide)
chain: ARTK(Ac)QTARKSTGGKAPRKQ
binding score [1]: 0.000538 | binding score [2]: 0.00679

B12: H3 1-19 (peptide)
chain: ARTKQTARKSTGGKAPRKQ
modifications: A Rme2s T Kme2 Q T A Rme2s K S T G G K A P R K Q
binding score [1]: 0 | binding score [2]: 0.00226

B18: H3 1-19 (peptide)
chain: ARTKQTARKSTGGKAPRKQ
modifications: A Rme2a T Kme3 Q T A Rme2s Kme2 S T G G K A P R K Q
binding score [1]: 0.00269 | binding score [2]: 0

B21: H3 1-19 (peptide)
chain: A[Arg(Me2a)]TK(Me3)QTARKSTGGKAPRKQ
binding score [1]: 0.0122 | binding score [2]: 0.00344

B22: H3 26-45 (peptide)
chain: RKSAPATGGVKKPHRYRPG
modifications: histone peptides carry modifications given inline in the sequence and in columns 4-7 (Kac, Kme1/2/3, Rme2a/s, Cit, pS/pT); N-terminus free or acetylated
binding score [1]: 0.00968 | binding score [2]: 0.00305

B24: H2a 1-19 (peptide)
chain: [pS]GRGKQGGK(Ac)ARAK(Ac)AKSRSS
binding score [1]: 0.0477 | binding score [2]: 0.186

B25: H3 1-19 (peptide)
chain: ARTKQTARKSTGGKAPRKQ
modifications: A R T K Q T A R K S pT G G Kac A P R K Q
binding score [1]: 0.00574 | binding score [2]: 0.121

B28: H2B 1-19 (peptide)
chain: PDPAK(Ac)SAPAPKKGSK(Ac)KAVT
binding score [1]: 0.00143 | binding score [2]: 0

B29: H3 1-19 (peptide)
chain: ARTKQTARKSTGGKAPRKQ
modifications: A Rme2a T Kac Q T A Rme2s Kme1 S T G G K A P R K Q
binding score [1]: 0 | binding score [2]: 0

B33: H3 1-19 (peptide)
chain: ARTKQTARKSTGGKAPRKQ
modifications: A Rme2a T Kme1 Q T A Rme2a Kme2 S T G G K A P R K Q
binding score [1]: 0.00251 | binding score [2]: 0.000885

B34: H2a 1-19 (peptide)
chain: SGRGK(Ac)QGGKARAK(Ac)AKSRSS
binding score [1]: 0.0151 | binding score [2]: 0.127

B35: H3 1-19 (peptide)
chain: ARTKQTA[Arg(Me2a)][Lys(Me2)][pS][pT]GGKAPRKQ
binding score [1]: 0.00448 | binding score [2]: 0

B36: H3 1-19 (peptide)
chain: ARTKQTA[Arg(Me2a)]K(Ac)[pS]TGGKAPRKQ
binding score [1]: 0.00126 | binding score [2]: 0.00384

B38: H3 1-19 (peptide)
chain: ARTKQTARKSTGGKAPRKQ
modifications: A R T K Q T A R Kme1 S pT G G K A P R K Q
binding score [1]: 0.0122 | binding score [2]: 0.00344

B40: H3 1-19 (peptide)
chain: ARTK(Me3)QTARKSTGGKAPRKQ
binding score [1]: 0 | binding score [2]: 0.00148

B41: H2a 1-19 (peptide)
chain: [pS]GRGK(Ac)QGGKARAKAKSRSS
binding score [1]: 0.00197 | binding score [2]: 0.0135

B43: H3 1-19 (peptide)
chain: A[Arg(Me2a)][pT]K(Ac)QTARKSTGGKAPRKQ
binding score [1]: 0.0346 | binding score [2]: 0.0394

B47: H3 1-19 (peptide)
chain: ARTKQTARKSTGGKAPRKQ
modifications: A R T K Q T A R K pS pT G G K A P R K Q
binding score [1]: 0.00681 | binding score [2]: 0

B48: H3 1-19 (peptide)
chain: ARTKQTARKSTGGKAPRKQ
modifications: A R T K Q T A Rme2a Kme2 pS T G G K A P R K Q
binding score [1]: 0.00215 | binding score [2]: 0.0062

B49: H3 1-19 (peptide)
chain: ARTKQTARKSTGGKAPRKQ
modifications: A R T K Q T A R Kme2 S pT G G K A P R K Q
binding score [1]: 0 | binding score [2]: 0

B50: H3 1-19 (peptide)
chain: A[Arg(Me2s)]T[Lys(Me2)]QTA[Arg(Me2s)][Lys(Me2)]STGGKAPRKQ
binding score [1]: 0 | binding score [2]: 0

B51: H3 1-19 (peptide)
chain: ARTKQTARKSTGGKAPRKQ
modifications: A Rme2s T Kme1 Q T A Rme2s K S T G G K A P R K Q
binding score [1]: 0 | binding score [2]: 0.0062
